Source: patent publication US20250250357A1 (NANJING ZAIMING PHARMACEUTICAL, published 2025)

Experiments:
[1] = molecular target: T1, human MSLN-R2-his protein (human, UniProt Q13421 391-486); test: ELISA; antibody 1 nM
T1 construct: also called hMSLN-R2-his; not shown: His tag

[2] = molecular target: T2, human MSLN-R3-his protein (human, UniProt Q13421 487-598); test: ELISA; antibody 1 nM
T2 construct: also called hMSLN-R3-his; not shown: His tag

[3] = molecular target: T3, human MSLN-R1-his protein (human, UniProt Q13421 296-390); test: ELISA; antibody 1 nM
T3 construct: also called hMSLN-R1-his; human MSLN-R1 protein; not shown: His tag
T3 chain: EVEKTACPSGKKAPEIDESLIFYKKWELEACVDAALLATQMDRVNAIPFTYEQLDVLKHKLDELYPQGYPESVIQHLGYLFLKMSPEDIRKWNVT

[4] = molecular target: T1, human MSLN-R2-his protein; test: ELISA; antibody 1 nM; remark: listed apart in the source
[5] = molecular target: T2, human MSLN-R3-his protein; test: ELISA; antibody 1 nM; remark: listed apart in the source
[6] = molecular target: T2, human MSLN-R3-his protein; test: ELISA; antibody 10 nM
[7] = molecular target: T1, human MSLN-R2-his protein; test: ELISA; antibody 0.1 nM
[8] = molecular target: T1, human MSLN-R2-his protein; test: ELISA; antibody 100 nM
[9] = molecular target: T2, human MSLN-R3-his protein; test: ELISA; antibody 0.1 nM
[10] = molecular target: T1, human MSLN-R2-his protein; test: ELISA; antibody 0.001 nM
[11] = molecular target: T2, human MSLN-R3-his protein; test: ELISA; antibody 0.001 nM
[12] = molecular target: T2, human MSLN-R3-his protein; test: ELISA; antibody 0.0001 nM
[13] = molecular target: T1, human MSLN-R2-his protein; test: ELISA; antibody 0 nM (blank)
[14] = molecular target: T4, human MSLN protein, endogenously expressed on Hela and OVCAR3 cells (human, UniProt Q13421 296-598); test: FACS on OVCAR3 cells; antibody 4 nM
T4 construct: whole, on cells; also called mesothelin
T4 sequence (Q13421 other isoform, or with tags, fused parts or gaps): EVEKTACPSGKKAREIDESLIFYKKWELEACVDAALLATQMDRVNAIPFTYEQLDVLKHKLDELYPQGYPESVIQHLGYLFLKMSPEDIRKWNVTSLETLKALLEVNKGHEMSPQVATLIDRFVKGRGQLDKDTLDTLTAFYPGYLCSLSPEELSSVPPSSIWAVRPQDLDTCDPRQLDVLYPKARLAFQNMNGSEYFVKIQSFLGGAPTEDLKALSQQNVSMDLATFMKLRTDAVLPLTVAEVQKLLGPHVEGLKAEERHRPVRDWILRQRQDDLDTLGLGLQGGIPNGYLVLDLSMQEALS

[15] = molecular target: T4, human MSLN protein, endogenously …; test: FACS on OVCAR3 cells; antibody 20 nM
[16] = molecular target: T4, human MSLN protein, endogenously …; test: FACS on OVCAR3 cells; antibody 0.8 nM
[17] = molecular target: T4, human MSLN protein, endogenously …; test: FACS on OVCAR3 cells; antibody 100 nM
[18] = molecular target: T5, human MSLN-FL-his protein (human, UniProt Q13421 296-580); test: competitive ELISA; row F1.2.12
T5 construct: made in HEK293E cells, purified on nickel column; also called hMSLN-FL-his; human MSLN full-length protein; not shown: His tag
T5 sequence (Q13421 other isoform, or with tags, fused parts or gaps): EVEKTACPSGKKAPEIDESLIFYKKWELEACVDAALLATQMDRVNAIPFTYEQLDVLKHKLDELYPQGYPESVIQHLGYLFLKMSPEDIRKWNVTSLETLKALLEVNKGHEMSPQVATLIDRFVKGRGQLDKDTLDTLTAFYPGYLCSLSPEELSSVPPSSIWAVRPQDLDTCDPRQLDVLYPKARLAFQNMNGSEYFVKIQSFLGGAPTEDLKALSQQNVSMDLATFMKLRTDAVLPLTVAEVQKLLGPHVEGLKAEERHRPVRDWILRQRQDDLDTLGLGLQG

[19] = molecular target: T5, human MSLN-FL-his protein; test: competitive ELISA; row F1.56.1
Method: (§1) In order to identify antigen-binding sites of antibodies, MSLN chimeric antibodies were grouped using competitive ELISA.
(§2) The chimeric antibodies were diluted to 2 μg/mL with PBS and allowed to coat 96-well high-adsorption ELISA plates at 50 μL/well. After the plates were coated at 4° C. overnight, 250 μL of a blocking buffer (PBS containing 2% (w/w) BSA) was added for two hours of blocking at room temperature. 40 μg/mL of the antibodies to be tested were added, and then the human MSLN-FL-His protein with an EC₈₀ concentration corresponding to each of the antibodies to be tested was added for incubation for 2 h. The plates were washed 5 times with PBS, an HRP-labeled anti-His secondary antibody (purchased from Genescript, Cat. No. A00612) was then added for incubation for 1 h, and the plates were washed 5 times again. A TMB substrate was added at 50 μL/well, and after 10 minutes of incubation at room temperature, a stop solution (1.0 M HCl) was added at 50 μL/well. OD₄₅₀ nm values were read using an ELISA plate reader (Insight, purchased from PerkinElmer), and the competition rate between the antibodies was calculated according to the OD₄₅₀ nm values using a formula.

[20] = molecular target: T5, human MSLN-FL-his protein; test: competitive ELISA; row F2.17.3
Method: as §1, §2

[21] = molecular target: T5, human MSLN-FL-his protein; test: competitive ELISA; row F2.39.3
Method: as §1, §2

[22] = molecular target: T5, human MSLN-FL-his protein; test: competitive ELISA; row F2.58.8
Method: as §1, §2

[23] = molecular target: T4, human MSLN protein, endogenously …; test: FACS on OVCAR3 cells; antibody 0.16 nM
[24] = molecular target: T5, human MSLN-FL-his protein; test: competitive ELISA; row F1.35.24
Method: as §1, §2

[25] = molecular target: T5, human MSLN-FL-his protein; test: competitive ELISA; row F2.24.10
Method: as §1, §2

[26] = molecular target: T4, human MSLN protein, endogenously …; test: FACS on OVCAR3 cells; antibody 0.032 nM
[27] = molecular target: T4, human MSLN protein, endogenously …; test: FACS on OVCAR3 cells; antibody 0.0064 nM
[28] = molecular target: T4, human MSLN protein, endogenously …; test: FACS on OVCAR3 cells; antibody 0.00128 nM
[29] = molecular target: T5, human MSLN-FL-his protein; test: competitive ELISA; row Tab108 (R3)
Method: as §1, §2

[30] = molecular target: T5, human MSLN-FL-his protein; test: competitive ELISA; row Tab142 (R1)
Method: as §1, §2

T2 sequence (Q13421 495-606): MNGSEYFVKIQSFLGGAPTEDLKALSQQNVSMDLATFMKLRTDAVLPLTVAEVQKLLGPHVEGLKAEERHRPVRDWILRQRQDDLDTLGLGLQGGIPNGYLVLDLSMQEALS
T1 sequence (Q13421 other isoform, or with tags, fused parts or gaps): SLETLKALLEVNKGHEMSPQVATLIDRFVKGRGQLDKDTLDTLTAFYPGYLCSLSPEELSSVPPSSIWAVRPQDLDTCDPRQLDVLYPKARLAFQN

B1: Tab107 (YP3, hIgG1) (antibody, V domains shown)
VH: QEQLVESGGGLVQPGASLTLTCTASGIDFSRYYMCWVRQAPGKGLEGIACIYIGGSGSTYYASWAKGRFTISKASSTTVTLQMTSLTAADTATYFCARGTNLNYIFRLWGPGTLVTVSS
VL: DVVMTQTPSPVSAAVGGTVTIKCQASQSINNGLAWYQQKPGQPPRLLIYSASNLESGVPSRFKGSGSGTEFTLTISDLECDDAATYYCQCIWDGNSYVNAFGGGTEVVVRT
notes: Control antibody; VH and VL recombined into human IgG1 CH and CL expression vectors; also called YP3 human IgG1 antibody
- OD450 nm [1]: 0.05
- OD450 nm [2]: 0.05
- OD450 nm [3]: 0.05
- OD450 nm [4]: 0.05
- OD450 nm [5]: 0.05
- OD450 nm [6]: 0.05
- OD450 nm [7]: 0.04
- OD450 nm [8]: 0.09
- OD450 nm [9]: 0.05
- OD450 nm [10]: 0.05
- OD450 nm [11]: 0.05
- OD450 nm [12]: 0.05
- OD450 nm [13]: 0.05
- FACS fluorescence intensity [14]: 1520
- FACS fluorescence intensity [15]: 2640
- FACS fluorescence intensity [16]: 619
- FACS fluorescence intensity [17]: 3150
- competition rate [18]: -41%
- competition rate [19]: -124%
- competition rate [20]: -86%
- competition rate [21]: -24%
- competition rate [22]: 9%
- FACS fluorescence intensity [23]: 229
- competition rate [24]: 8%
- competition rate [25]: -19%
- FACS fluorescence intensity [26]: 111
- FACS fluorescence intensity [27]: 80
- FACS fluorescence intensity [28]: 76
- competition rate [29]: -80%
- competition rate [30]: -6%
